# Results from paper PMC11825297.
# Target: GST-tagged actin-binding domain of melanophilin (GST-Mlph-ABD), ATTO-488-labeled (UniProt Q91V27)
# Assay: MST; ATTO-488-labeled GST-Mlph-ABD (diluted to 40 nM in MST buffer: 50 mM Tris-HCl pH 7.8, 100 mM NaCl, 10 mM MgCl2, 0.05% Tween-20) mixed 1:1 with a 16-step two-fold dilution series of the His-tagged Myo5a tail from 40 uM in His-tag protein dialysis buffer; Monolith NT.115; three repetitions
# Chain of UniProt Q91V27 (Q91V27 401-590): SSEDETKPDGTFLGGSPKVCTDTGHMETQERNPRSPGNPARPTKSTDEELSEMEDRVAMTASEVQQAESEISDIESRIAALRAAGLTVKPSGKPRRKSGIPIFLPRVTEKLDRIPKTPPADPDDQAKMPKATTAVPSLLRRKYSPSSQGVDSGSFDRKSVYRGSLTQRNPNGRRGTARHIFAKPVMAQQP
substance,measurement,value
His-tagged middle tail domain of myosin-5a (His-Myo5a-MTD) (from UniProt Q99104 1-1853) (domain or fragment),Kd,562 nM
